Measured values published in the supplement of paper PMC10724198.
± gives the standard deviation of the averaged measurements.

How the values were obtained:
[1] = tested on: Saccharomyces cerevisiae; assay: protein stability index of tFT-peptide fusion (C-terminal peptide) (PSI (0-1 scale)); higher = more stable (slower turnover); conditions: genetic background: wild type; temperature: 30 C
[2] = tested on: Saccharomyces cerevisiae; assay: as above
Procedure: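 MPS profiling in S. cerevisiae of the tFT-X12 degron library: putative degron peptides plus stable controls, 12 aa, fused to the C-terminus of a sfGFP-mCherry timer. Cells are FACS-sorted into 8 mCherry/sfGFP bins and deep-sequenced. PSI runs from 0 (unstable) to 1 (stable). Backgrounds are wild type, das1Δ and doa10Δ at 30 °C, and wild type, das1Δ, cdc34-1 and cdc53-1 at 37 °C; 2-3 technical replicates each.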

[3] = genetic background: cdc34-1, temperature: 37 C
[4] = genetic background: cdc53-1, temperature: 37 C
[5] = genetic background: das1 deletion, temperature: 30 C
[6] = genetic background: das1 deletion, temperature: 37 C
[7] = genetic background: doa10 deletion, temperature: 30 C
[8] = genetic background: wild type, temperature: 30 C
[9] = genetic background: wild type, temperature: 37 C
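Note: PSI is a weighted mean of sequencing reads over stability bins, variants kept only with over 10 reads, mCherry proximal and sfGFP distal, peptide attached via GGGS linker.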

| Sequence | protein stability index [1] | protein stability index [2, 3] | protein stability index [2, 4] | protein stability index [2, 5] | protein stability index [2, 6] | protein stability index [2, 7] | protein stability index [2, 8] | protein stability index [2, 9] |
| --- | --- | --- | --- | --- | --- | --- | --- | --- |
| SVFFALFLRCTP | 0.359 ± 0.05 | 0.26 ± 0.058 | 0.229 ± 0.055 | 0.34 ± 0.031 | 0.442 ± 0.005 | 0.43 ± 0.026 | 0.323 ± 0.024 | 0.405 ± 0.02 |
| SVGVVWVLSVEG | 0.454 ± 0.0074 | 0.444 ± 0.042 | 0.517 ± 0.015 | 0.33 ± 0.031 | 0.5415 ± 0.0018 | 0.308 ± 0.0081 | 0.343 ± 0.018 | 0.503 ± 0.0036 |
| SVTFVVYFISGG | 0.513 ± 0.039 | 0.522 ± 0.025 | 0.608 ± 0.023 | 0.409 ± 0.022 | 0.578 ± 0.028 | 0.426 ± 0.048 | 0.421 ± 0.022 | 0.548 ± 0.0076 |
| SWAILFVLEGFK | 0.477 ± 0.067 | 0.4673 ± 0.0029 | 0.548 ± 0.058 | 0.37 ± 0.021 | 0.561 ± 0.0092 | 0.318 ± 0.019 | 0.366 ± 0.011 | 0.5837 ± 0.004 |
| SWLLLVFPLSVC | 0.191 ± 0.016 | 0.0423 ± 0.012 | 0.0634 ± 0.005 | 0.167 ± 0.03 | 0.231 ± 0.0058 | 0.0982 ± 0.0044 | 0.0994 ± 0.021 | 0.113 ± 0.0063 |
| TCFVKLLPFLVL | 0.546 ± 0.067 | 0.549 ± 0.052 | 0.562 ± 0.011 | 0.456 ± 0.02 | 0.608 ± 0.024 | 0.4425 ± 0.0032 | 0.442 ± 0.013 | 0.5482 ± 0.0021 |
| TCRASLRRIVVA | 0.358 ± 0.034 | 0.514 ± 0.024 | 0.538 ± 0.03 | 0.381 ± 0.031 | 0.5813 ± 0.0056 | 0.222 ± 0.01 | 0.255 ± 0.042 | 0.459 ± 0.015 |
| TFRVLREIILTA | 0.249 ± 0.0078 | 0.2 ± 0.021 | 0.228 ± 0.021 | 0.206 ± 0.029 | 0.33 ± 0.023 | 0.151 ± 0.011 | 0.178 ± 0.024 | 0.277 ± 0.0079 |
| TPPFFDIFVVLL | 0.46 ± 0.037 | 0.576 ± 0.052 | 0.652 ± 0.023 | 0.463 ± 0.027 | 0.6652 ± 0.0032 | 0.456 ± 0.021 | 0.48 ± 0.031 | 0.616 ± 0.043 |
| TPPIRCRLVRFL | 0.335 ± 0.029 | 0.656 ± 0.059 | 0.735 ± 0.017 | 0.626 ± 0.029 | 0.7526 ± 0.00097 | 0.2071 ± 0.0014 | 0.219 ± 0.018 | 0.496 ± 0.0056 |
| TSARPFLYSFRP | 0.00961 ± 0.014 | 0.69 ± 0.036 | 0.7386 ± 0.0065 | 0.654 ± 0.018 | 0.739 ± 0.0082 | 0.65 ± 0.016 | 0.642 ± 0.019 | 0.705 ± 0.027 |
| TVLPCVLLFLRG | 0.485 ± 0.013 | 0.61 ± 0.026 | 0.632 ± 0.012 | 0.508 ± 0.035 | 0.613 ± 0.0086 | 0.506 ± 0.022 | 0.484 ± 0.037 | 0.603 ± 0.03 |
| VAVFFGCCVKVG | 0.156 ± 0.026 | 0.149 ± 0.027 | 0.18 ± 0.02 | 0.191 ± 0.035 | 0.3258 ± 0.0018 | 0.0877 ± 0.0089 | 0.109 ± 0.024 | 0.141 ± 0.019 |
| VAVGFVLGLCVV | 0.447 ± 0.011 | 0.392 ± 0.042 | 0.418 ± 0.013 | 0.348 ± 0.03 | 0.4701 ± 0.0042 | 0.31 ± 0.012 | 0.35 ± 0.021 | 0.431 ± 0.012 |
| VCFLLLLPALLI | 0.432 ± 0.053 | 0.466 ± 0.031 | 0.465 ± 0.014 | 0.398 ± 0.026 | 0.516 ± 0.0089 | 0.422 ± 0.0094 | 0.393 ± 0.016 | 0.512 ± 0.027 |
| VCNQVPGVIWFC | 0.481 ± 0.022 | 0.683 ± 0.036 | 0.771 ± 0.017 | 0.654 ± 0.018 | 0.7556 ± 0.0068 | 0.373 ± 0.0045 | 0.412 ± 0.018 | 0.61183 ± 8.6e-05 |
| VCRFLVSVFSCV | 0.439 ± 0.019 | 0.546 ± 0.042 | 0.548 ± 0.02 | 0.453 ± 0.02 | 0.5763 ± 0.00065 | 0.38 ± 0.024 | 0.399 ± 0.025 | 0.5167 ± 0.0027 |
| VCRVAAWLGWFV | 0.175 ± 0.025 | 0.522 ± 0.016 | 0.708 ± 0.024 | 0.637 ± 0.019 | 0.7292 ± 0.00075 | 0.0897 ± 0.012 | 0.0909 ± 0.024 | 0.1636 ± 0.0013 |
| VEFSLYVVFFLV | 0.211 ± 0.0088 | 0.2152 ± 0.00048 | 0.344 ± 0.024 | 0.248 ± 0.029 | 0.437 ± 0.028 | 0.0993 ± 0.013 | 0.109 ± 0.018 | 0.154 ± 0.0063 |
| VFCPRACWEFVG | 0.222 ± 0.034 | 0.567 ± 0.041 | 0.737 ± 0.027 | 0.649 ± 0.021 | 0.7777 ± 0.0067 | 0.12 ± 0.0079 | 0.143 ± 0.0095 | 0.213 ± 0.0029 |

| Sequence | protein stability index [1] | protein stability index [2, 3] | protein stability index [2, 4] | protein stability index [2, 5] | protein stability index [2, 6] | protein stability index [2, 7] | protein stability index [2, 8] | protein stability index [2, 9] |
| --- | --- | --- | --- | --- | --- | --- | --- | --- |
| VFCSRSLISVVS | 0.313 ± 0.027 | 0.193 ± 0.03 | 0.243 ± 0.072 | 0.208 ± 0.041 | 0.355 ± 0.007 | 0.165 ± 0.014 | 0.192 ± 0.03 | 0.303 ± 0.011 |
| VFFCLCLCLFFV | 0.368 ± 0.031 | 0.432 ± 0.023 | 0.463 ± 0.012 | 0.341 ± 0.018 | 0.473 ± 0.028 | 0.299 ± 0.0062 | 0.314 ± 0.022 | 0.45 ± 0.036 |
| VFFGCIWSIVYN | 0.2962 ± 0.0012 | 0.247 ± 0.022 | 0.302 ± 0.12 | 0.213 ± 0.035 | 0.41 ± 0.018 | 0.181 ± 0.014 | 0.229 ± 0.042 | 0.377 ± 0.011 |
| VFGARLFLIRLV | 0.223 ± 0.0077 | 0.405 ± 0.059 | 0.519 ± 0.069 | 0.534 ± 0.033 | 0.635 ± 0.023 | 0.155 ± 0.027 | 0.14 ± 0.041 | 0.1767 ± 0.00049 |
| VFLNVLDNNRLC | 0.464 ± 0.037 | 0.65 ± 0.078 | 0.734 ± 0.011 | 0.662 ± 0.025 | 0.74 ± 0.0031 | 0.323 ± 0.011 | 0.331 ± 0.046 | 0.622 ± 0.028 |
| VFLRFVLSFFLL | 0.4516 ± 0.001 | 0.542 ± 0.03 | 0.629 ± 0.023 | 0.526 ± 0.023 | 0.608 ± 0.0045 | 0.424 ± 0.02 | 0.418 ± 0.013 | 0.489 ± 0.0065 |
| VFLSLVFFFIIT | 0.367 ± 0.026 | 0.254 ± 0.011 | 0.343 ± 0.0077 | 0.282 ± 0.035 | 0.43 ± 0.005 | 0.287 ± 0.013 | 0.275 ± 0.019 | 0.392 ± 0.021 |
| VFRVLLSLFSTL | 0.408 ± 0.0095 | 0.657 ± 0.021 | 0.7335 ± 0.0063 | 0.653 ± 0.018 | 0.738 ± 0.0053 | 0.289 ± 0.019 | 0.306 ± 0.023 | 0.4804 ± 0.0029 |
| VFRYWCGIFCLT | 0.478 ± 0.07 | 0.688 ± 0.052 | 0.701 ± 0.054 | 0.613 ± 0.025 | 0.789 ± 0.045 | 0.528 ± 0.027 | 0.547 ± 0.019 | 0.6715 ± 0.0057 |
| VFSAGFSTISLF | 0.704 ± 0.39 | 0.745 ± 0.037 | 0.792 ± 0.03 | 0.678 ± 0.049 | 0.789 ± 0.012 | 0.6674 ± 0.0061 | 0.666 ± 0.012 | 0.741 ± 0.011 |
| VFSWLAFGFFCS | 0.557 ± 0.091 | 0.647 ± 0.0029 | 0.69 ± 0.012 | 0.61 ± 0.022 | 0.6821 ± 0.0028 | 0.588 ± 0.024 | 0.601 ± 0.023 | 0.642 ± 0.033 |
| VGELYRLRKLHV | 0.313 ± 0.035 | 0.69 ± 0.026 | 0.73 ± 0.013 | 0.607 ± 0.02 | 0.728 ± 0.015 | 0.222 ± 0.02 | 0.249 ± 0.035 | 0.506 ± 0.018 |
| VGHVFLGVVWLV | 0.163 ± 0.013 | 0.44 ± 0.043 | 0.573 ± 0.014 | 0.457 ± 0.031 | 0.6 ± 0.0034 | 0.0977 ± 0.0055 | 0.101 ± 0.013 | 0.0863 ± 0.011 |
| VGLRLSVIFVVI | 0.372 ± 0.038 | 0.265 ± 0.019 | 0.2985 ± 0.0021 | 0.213 ± 0.033 | 0.428 ± 0.027 | 0.195 ± 0.0031 | 0.213 ± 0.027 | 0.391 ± 0.049 |
| VGVIGWGVLGVG | 0.5 ± 0.01 | 0.475 ± 0.04 | 0.548 ± 0.0055 | 0.481 ± 0.011 | 0.541 ± 0.011 | 0.4866 ± 0.00011 | 0.481 ± 0.013 | 0.536 ± 0.0097 |
| VGVVGVRVLVVV | 0.2026 ± 0.0015 | 0.0407 ± 0.0012 | 0.1 ± 0.018 | 0.166 ± 0.032 | 0.19025 ± 0.00017 | 0.142 ± 0.01 | 0.154 ± 0.024 | 0.17315 ± 8e-05 |
| VIGSFVRVFGIM | 0.512 ± 0.12 | 0.698 ± 0.024 | 0.751 ± 0.018 | 0.617 ± 0.017 | 0.728 ± 0.026 | 0.489 ± 0.041 | 0.506 ± 0.0097 | 0.6657 ± 0.00035 |
| VILMFELFGVRI | 0.331 ± 0.029 | 0.324 ± 0.04 | 0.457 ± 0.019 | 0.355 ± 0.058 | 0.4304 ± 0.0029 | 0.327 ± 0.019 | 0.313 ± 0.051 | 0.422 ± 0.054 |
| VLCHLVLYVGDK | 0.4359 ± 0.0017 | 0.454 ± 0.013 | 0.569 ± 0.022 | 0.383 ± 0.035 | 0.588 ± 0.013 | 0.3413 ± 0.0027 | 0.397 ± 0.052 | 0.534 ± 0.029 |
